Data on 8 substances can be found in US20100150834A1, “HIGH AFFINITY EPHB RECEPTOR BINDING COMPOUNDS AND METHODS OF USE THEREOF” (priority 2006, published 2010).

Where two headings read alike, the source gives them in different places. No end group written: not given here. A value given as a limit tells only on which side of the number the result lay.

In data set [1] the target is T1, murine EphB4 (Mus musculus, UniProt P54761).
T1 construct: purchased R&D Systems 446-B4-200
T1 sequence (P54761 16-539 limits assumed): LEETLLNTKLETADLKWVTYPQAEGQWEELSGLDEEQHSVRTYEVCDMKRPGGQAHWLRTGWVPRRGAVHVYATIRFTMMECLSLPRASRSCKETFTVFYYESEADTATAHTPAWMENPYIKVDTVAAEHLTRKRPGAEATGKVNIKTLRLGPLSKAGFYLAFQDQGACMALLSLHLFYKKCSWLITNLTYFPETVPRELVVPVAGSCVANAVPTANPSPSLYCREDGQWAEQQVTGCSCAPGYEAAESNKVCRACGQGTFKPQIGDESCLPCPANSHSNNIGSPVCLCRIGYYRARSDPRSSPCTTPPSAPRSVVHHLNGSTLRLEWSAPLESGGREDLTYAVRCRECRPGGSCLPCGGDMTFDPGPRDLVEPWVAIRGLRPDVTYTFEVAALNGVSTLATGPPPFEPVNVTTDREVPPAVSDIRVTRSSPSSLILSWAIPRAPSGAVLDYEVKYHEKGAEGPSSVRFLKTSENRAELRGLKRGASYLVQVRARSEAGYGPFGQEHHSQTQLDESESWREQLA
Briefly: TNYL-RAW Fc immobilized on protein A ELISA plates, binding of murine EphB4 AP. The conditions noted are these: purified from HEK293 cell culture supernatants (FIG. 5B).

Data set [2] addresses T2, EphB4 (Homo sapiens, UniProt P54760).
T2 construct: endogenous in cells; host or cells: MDA-MB-231 breast cancer cells
T2 sequence (P54760 16-987): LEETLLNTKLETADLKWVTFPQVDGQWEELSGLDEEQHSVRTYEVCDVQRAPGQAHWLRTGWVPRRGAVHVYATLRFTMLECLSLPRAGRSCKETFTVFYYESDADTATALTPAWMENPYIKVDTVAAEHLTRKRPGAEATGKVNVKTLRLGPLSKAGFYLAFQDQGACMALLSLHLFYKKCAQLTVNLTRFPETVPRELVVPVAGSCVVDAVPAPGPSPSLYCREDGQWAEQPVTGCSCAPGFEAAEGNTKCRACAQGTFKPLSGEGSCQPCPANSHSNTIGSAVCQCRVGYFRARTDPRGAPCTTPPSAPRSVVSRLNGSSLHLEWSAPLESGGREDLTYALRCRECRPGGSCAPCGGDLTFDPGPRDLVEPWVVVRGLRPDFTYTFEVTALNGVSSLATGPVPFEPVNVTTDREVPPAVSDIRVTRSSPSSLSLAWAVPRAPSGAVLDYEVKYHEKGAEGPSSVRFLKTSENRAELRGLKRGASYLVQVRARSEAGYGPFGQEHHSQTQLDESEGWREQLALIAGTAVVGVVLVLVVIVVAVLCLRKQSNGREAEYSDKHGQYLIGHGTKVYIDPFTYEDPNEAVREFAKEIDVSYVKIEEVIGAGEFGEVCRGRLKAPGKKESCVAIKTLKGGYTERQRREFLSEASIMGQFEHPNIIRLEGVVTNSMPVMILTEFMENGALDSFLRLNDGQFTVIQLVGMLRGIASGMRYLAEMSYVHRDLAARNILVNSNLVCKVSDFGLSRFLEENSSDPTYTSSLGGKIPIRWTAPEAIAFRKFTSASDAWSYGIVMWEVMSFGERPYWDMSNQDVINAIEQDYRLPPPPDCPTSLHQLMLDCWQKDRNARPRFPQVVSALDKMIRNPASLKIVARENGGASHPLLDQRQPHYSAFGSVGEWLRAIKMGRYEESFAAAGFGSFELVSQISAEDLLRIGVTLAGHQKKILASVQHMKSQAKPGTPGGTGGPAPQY
Briefly: EphB4 tyrosine phosphorylation in MDA-MB-231 breast cancer cells (immunoprecipitation, PTyr immunoblot). It counts as cell-based. The conditions noted are these: 2 μg/ml, clustered with anti-Fc antibodies, 20 minutes, MDA-MB-231 cells (FIG. 5E). On the procedure:
EphB4 tyrosine phosphorylation was detected in EphB4 immunoprecipitates by immunoblotting with anti-phosphotyrosine antibodies (PTyr). […] Cells were also stimulated with 1 μg/ml ephrin-B2 Fc or human Fc as positive and negative controls, respectively.
For orientation: A western blot detects proteins with antibodies after separation by electrophoresis.

A short description of data set [3]: Half-life of TNYL-RAW Fc in HEK293 cell culture medium. The conditions noted are these: purified from medium in which HEK293 cells were grown for 4 days. It counts as in vitro ADME.
The target in data set [4] is T1, murine EphB4. Briefly: Binding ELISA on immobilized murine EphB4-Fc, streptavidin-HRP detection (Table 3). As to conditions: binding to murine EphB4; based on the estimated concentration of peptide-coupled PEG molecules; read-out: KD ± SE. Here is the method: The dissociation constants in Table 3 were measured in binding assays as described below. Reacti-bind Protein A coated strip plates were washed three times with the wash buffer TBST/Ca (TBS, 0.01% Tween, 1 mM CaCl2). Plates were coated with murine EphB4-Fc (reconstituted in PBS 200 μg/ml, diluted to 1 μg/ml in TBST/Ca) 100 μl/well for 1 hour at ambient temperature. The plates were washed four times with TBST/Ca. PEG-TNYL-RAW-biotin (made by The Burnham Institute, La Jolla, Calif.), obtained from the PEGylation reaction described in Example 2 supra, was added at different concentrations in TBST/Ca (100 μl/well) for 1 hour at ambient temperature. The plates were again washed four times with TBST/Ca. Streptavidin-HRP (1:2000) in 100 μl TBST/Ca was added for 1 hour at ambient temperature. The plates were again washed four times with TBST/Ca.

Data set [5] deals with T3, murine EphB4/murine ephrin-B2 (Mus musculus, UniProt P54761).
T3 sequence (P54761 16-539 limits assumed): T1 sequence (P54761 16-539 limits assumed)
Briefly: Inhibition of murine EphB4-AP binding to immobilized murine ephrin-B2-Fc (Table 4). As to conditions: based on the estimated concentration of peptide-coupled PEG molecules, No PEG control not biotinylated. On the procedure:
The IC50 values in Table 4 were obtained from inhibition assays. […] Reati-bind Protein A coated strip plates were washed three times with wash buffer TBST/Ca. Plates were coated with murine ephrin-B2-Fc (reconstituted in PBS 200 μg/ml, diluted to 1 μg/ml with TBST/Ca) 100 μl/well for 1 h at ambient temperature. The control used was Human-Fc (1 μg/ml; 100 μl/well); Human-Fc is the control for ephrin-B2-Fc, which contains the extracellular domain of ephrin-B2 fused to the Fc portion of human IgG1. The plates were washed four times with TBST/Ca. For each well was added: PEG-TNYL-RAW-biotin, from PEGylation reaction in Example 2, supra, at different concentrations; 10 μl murine EphB4-Alkaline Phosphatase (EphB4-AP); and TBST/Ca to 50 μl. Plates were incubates for 3 hours at ambient temperature, then washed four times with TBST/Ca. Substrate, 1 mg/ml PNPP in SEAP buffer, was added in the amount of 100 μl/well. (2×SEAP buffer (pH=9.8) was prepared by: adding 2.1 ml diethanolamine and 10 μl 1M MgCl2 to 10 ml (total) water; adjusting pH to 9.8; wrapping in foil and storing at ambient temperature; and diluting with water to 1× on day of use). Optical density analysis (OD405) was performed using a plate reader to determine the extent to which PEG-TNYL-RAW-biotin inhibits the EphB4-ephrin-B2 interaction. […]

Data set [6] has as its target T4, EphB4 (Mus musculus, UniProt P54761).
T4 sequence (P54761 16-987): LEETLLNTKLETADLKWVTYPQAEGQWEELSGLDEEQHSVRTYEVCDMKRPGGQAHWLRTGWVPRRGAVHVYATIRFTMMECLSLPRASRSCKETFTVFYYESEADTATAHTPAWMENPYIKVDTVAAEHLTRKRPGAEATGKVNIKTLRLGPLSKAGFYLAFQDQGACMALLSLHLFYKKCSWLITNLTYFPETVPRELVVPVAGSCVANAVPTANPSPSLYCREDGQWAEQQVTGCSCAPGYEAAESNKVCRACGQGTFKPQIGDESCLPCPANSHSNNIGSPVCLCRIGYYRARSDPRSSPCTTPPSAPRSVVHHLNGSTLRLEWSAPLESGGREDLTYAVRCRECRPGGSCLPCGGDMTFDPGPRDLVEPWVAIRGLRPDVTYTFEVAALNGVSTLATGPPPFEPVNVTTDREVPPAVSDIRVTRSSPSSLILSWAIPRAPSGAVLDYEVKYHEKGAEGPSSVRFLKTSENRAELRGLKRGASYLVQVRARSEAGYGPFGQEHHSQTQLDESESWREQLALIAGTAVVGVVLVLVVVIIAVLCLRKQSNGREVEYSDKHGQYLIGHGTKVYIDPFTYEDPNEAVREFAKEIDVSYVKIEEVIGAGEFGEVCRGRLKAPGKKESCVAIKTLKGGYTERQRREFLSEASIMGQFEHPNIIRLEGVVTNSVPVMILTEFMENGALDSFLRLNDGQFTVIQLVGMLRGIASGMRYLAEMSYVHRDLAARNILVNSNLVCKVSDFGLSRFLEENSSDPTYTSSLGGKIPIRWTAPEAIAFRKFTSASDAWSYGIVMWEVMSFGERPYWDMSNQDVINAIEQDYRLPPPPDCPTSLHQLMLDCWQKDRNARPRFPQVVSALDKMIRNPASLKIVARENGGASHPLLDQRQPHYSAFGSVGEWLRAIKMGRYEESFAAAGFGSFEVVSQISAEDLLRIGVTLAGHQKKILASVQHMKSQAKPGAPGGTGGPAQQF
Briefly: EphB receptor specificity (% binding), Table 1. The conditions noted are these: binding to EphB4.

The target of data set [7] is T5, EphB1 (Homo sapiens, UniProt P54762).
T5 sequence (P54762 18-540 limits assumed): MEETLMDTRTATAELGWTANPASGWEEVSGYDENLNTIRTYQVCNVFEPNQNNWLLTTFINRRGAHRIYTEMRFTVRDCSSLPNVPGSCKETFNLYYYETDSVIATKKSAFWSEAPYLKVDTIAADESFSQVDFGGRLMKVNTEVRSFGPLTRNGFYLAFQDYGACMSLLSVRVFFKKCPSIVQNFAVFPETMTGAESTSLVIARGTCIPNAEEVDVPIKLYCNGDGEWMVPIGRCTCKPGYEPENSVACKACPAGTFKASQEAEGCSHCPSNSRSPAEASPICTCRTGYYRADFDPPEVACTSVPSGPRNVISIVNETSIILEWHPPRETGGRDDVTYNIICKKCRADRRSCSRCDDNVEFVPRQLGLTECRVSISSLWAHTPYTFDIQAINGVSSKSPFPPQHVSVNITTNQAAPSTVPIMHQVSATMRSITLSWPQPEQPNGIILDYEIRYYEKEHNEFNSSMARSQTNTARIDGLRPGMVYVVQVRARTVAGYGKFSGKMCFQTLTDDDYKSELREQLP
The data set can be described thus: Inhibition of ephrin-B2 AP binding by peptides panned on EphB1 (Table 1).

The test system of data set [8] is EphB1. Briefly: EphB receptor specificity (% binding), Table 1. The conditions noted are these: binding to EphB1.
A further data set has as its target EphB2 (Homo sapiens, UniProt P29323). Briefly: EphB receptor specificity (% binding), Table 1. As to conditions: binding to EphB2.
For the next data set, the target named is T6, murine EphB4 ectodomain (Mus musculus, UniProt P54761).
T6 construct: Wells coated with the murine EphB4 ectodomain
T6 sequence (P54761 16-539 limits assumed): T1 sequence (P54761 16-539 limits assumed)
The data set can be described thus: Inhibition of murine ephrin-B2 AP binding to immobilized murine EphB4 ectodomain (Example 4).

Sequence of EphB2 (P29323 19-1055): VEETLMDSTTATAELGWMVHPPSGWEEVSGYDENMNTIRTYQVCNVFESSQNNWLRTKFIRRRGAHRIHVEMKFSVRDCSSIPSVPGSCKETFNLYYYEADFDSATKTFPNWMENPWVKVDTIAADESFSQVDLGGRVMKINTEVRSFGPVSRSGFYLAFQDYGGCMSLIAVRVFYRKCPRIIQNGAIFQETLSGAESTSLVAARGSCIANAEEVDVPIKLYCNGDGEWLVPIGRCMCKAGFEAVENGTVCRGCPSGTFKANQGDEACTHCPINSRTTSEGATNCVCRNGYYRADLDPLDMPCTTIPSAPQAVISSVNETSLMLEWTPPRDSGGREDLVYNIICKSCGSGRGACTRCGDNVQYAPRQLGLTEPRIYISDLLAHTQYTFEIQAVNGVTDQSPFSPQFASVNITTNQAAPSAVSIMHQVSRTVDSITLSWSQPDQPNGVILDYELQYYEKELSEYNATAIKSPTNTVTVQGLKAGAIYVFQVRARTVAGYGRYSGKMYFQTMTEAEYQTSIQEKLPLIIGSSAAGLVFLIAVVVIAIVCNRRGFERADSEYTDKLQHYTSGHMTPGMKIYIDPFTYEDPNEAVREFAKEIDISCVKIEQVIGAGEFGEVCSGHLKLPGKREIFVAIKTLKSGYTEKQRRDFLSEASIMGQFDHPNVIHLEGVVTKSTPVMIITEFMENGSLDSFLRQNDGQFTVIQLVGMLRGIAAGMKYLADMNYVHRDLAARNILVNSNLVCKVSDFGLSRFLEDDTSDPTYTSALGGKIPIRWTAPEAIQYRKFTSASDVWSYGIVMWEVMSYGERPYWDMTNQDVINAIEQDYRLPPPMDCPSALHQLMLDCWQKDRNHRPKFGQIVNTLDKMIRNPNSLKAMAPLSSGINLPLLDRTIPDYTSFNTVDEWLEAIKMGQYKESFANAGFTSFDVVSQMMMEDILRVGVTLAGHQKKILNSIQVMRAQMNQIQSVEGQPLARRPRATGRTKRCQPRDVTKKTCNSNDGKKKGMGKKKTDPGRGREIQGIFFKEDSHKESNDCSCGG
Experimental for murine EphB4 ectodomain: Wells coated with the murine EphB4 ectodomain were incubated with murine ephrin-B2 AP and different concentrations of the indicated peptides. Ephrin-B2 AP binding to the immobilized EphB4 receptor ectodomain was measured in the presence of various concentrations of the peptides and detected by measuring alkaline phosphatase activity. Ephrin-B2 AP binding in the presence of peptide was normalized to binding in the absence of peptide.

In the case of “TNYL-RAW Fc fusion protein: TNYL-RAW peptide, GSGSK linker and human Fc of IgG1; two fusion proteins dimerize via the Fc domain (TNYLFSPNGPIARAWGSGSK-{human IgG1 Fc}; also: dimerizes via the Fc domain)”, the “binding to EphB4 AP” value with murine EphB4 [1] was “able to bind EphB4 AP with substantial affinity”. In the data set with EphB4 [2], the EphB4 tyrosine phosphorylation result is given as “did not stimulate EphB4 tyrosine phosphorylation”. Besides, in data set [3], the half-life entry is “appears to be longer than that of the synthetic peptide without Fc”. For “3.4 Kd (dimer): two TNYL-RAW peptides (with biotin) conjugated to a 3.4 kDa bifunctional PEG (SMB-PEG-SMB) (TNYLFSPNGPIARAW; also: biotin, position not given here, dimer: two peptides joined by 3.4 kDa bifunctional PEG (SMB-PEG-SMB))”, the Kd in the data set with murine EphB4 [4] is 0.9 ± 0.3 nM.

Consider “10 Kd (dimer): two TNYL-RAW peptides (with biotin) conjugated to a 10 kDa bifunctional PEG (SMB-PEG-SMB) (TNYLFSPNGPIARAW; also: biotin, position not given here, dimer: two peptides joined by 10 kDa bifunctional PEG (SMB-PEG-SMB))”, for which, in the data set with murine EphB4 [4], the Kd is 0.9 ± 0.2 nM. In [5], the IC50 is 9 ± 2 nM. For the substance “35 (SGHQLLNKMPN; EphB4-binding peptide) [compound 35]”, the “EphB Receptor Specificity (% Binding) B4” value with EphB4 [6] is 100%. At EphB1 [7], AHTFPYPHPKPH [compound 3] came in with an IC50 of approximately 150000 nM. In addition, in the data set with EphB1 [8], the “EphB Receptor Specificity (% Binding) B1” value is reported as 100%. Also, the “EphB Receptor Specificity (% Binding) B2” value at EphB2 is on record as 4%.

In the case of “10 Kd (monomer): one TNYL-RAW peptide (with biotin) conjugated to a 10 kDa PEG molecule (TNYLFSPNGPIARAW; also: conjugated to a 10 kDa PEG, site not given here, biotin, position not given here)”, the Kd with murine EphB4 [4] is 1.4 ± 0.7 nM. For the same substance, the IC50 in [5] was 21 ± 5 nM. As for EWLSPNLAPSVR [compound 1], the IC50 at EphB1 [7] (panning receptor EphB1) is approximately 10000 nM. The “EphB Receptor Specificity (% Binding) B2” value at EphB2 is listed as 2%. As to LFSPNGPIARAW [L-RAW], the IC50 on murine EphB4 ectodomain is more than 10000 nM.

A word on the Kd: it is the concentration at which binding is half-saturated. The IC50 is the concentration that inhibits the measured activity by half.
